T1: CD19 on Nalm6-luc tumor cells (CD19+BCMA-) (UniProt P15391 20-556, limits assumed)
T1 sequence (looked up): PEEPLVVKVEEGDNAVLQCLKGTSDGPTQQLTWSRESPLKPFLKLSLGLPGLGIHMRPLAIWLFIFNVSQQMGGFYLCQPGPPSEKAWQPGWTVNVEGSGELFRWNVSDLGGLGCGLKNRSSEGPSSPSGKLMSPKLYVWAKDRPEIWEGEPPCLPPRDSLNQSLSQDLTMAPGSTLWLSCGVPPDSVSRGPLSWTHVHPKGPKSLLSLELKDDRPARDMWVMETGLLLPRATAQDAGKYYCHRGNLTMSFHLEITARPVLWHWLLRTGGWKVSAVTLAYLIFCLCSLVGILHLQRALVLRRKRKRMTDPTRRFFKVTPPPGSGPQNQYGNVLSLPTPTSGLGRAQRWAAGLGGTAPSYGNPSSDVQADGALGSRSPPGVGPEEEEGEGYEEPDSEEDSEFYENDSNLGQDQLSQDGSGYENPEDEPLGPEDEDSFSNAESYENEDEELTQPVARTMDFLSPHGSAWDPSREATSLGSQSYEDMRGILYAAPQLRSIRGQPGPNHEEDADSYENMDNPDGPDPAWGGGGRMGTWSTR


Biological target: T1, CD19 on Nalm6-luc tumor cells …
Assay: cell-based or functional assay

Binder | tumor cell killing rate, Nalm6-luc, E:T 1:8, 72 h luciferase assay | tumor cell killing rate, Nalm6-luc, E:T 1:16, 72 h luciferase assay
B19 CAR (BCMA CAR and CD19-mutant CAR expressed in parallel on T cells) (other) chain 1: DIVLTQSPPSLAMSLGKRATISCRASESVTILGSHLIHWYQQKPGQPPTLLIQLASNVQTGVPARFSGSGSRTDFTLTIDPVEEDDVAVYYCLQSRTIPRTFGGGTKLEIKGGGGSGGGGSGGGGSQIQLVQSGPELKKPGETVKISCKASGYTFTDYSINWVKRAPGKGLKWMGWINTETREPAYAYDFRGRFAFSLETSASTAYLQINNLKYEDTATYFCALDYSYAMDYWGQGTSVTVSSTTTPAPRPPTPAPTIASQPLSLRPEACRPAAGGAVHTRGLDFACDIYIWAPLAGTCGVLLLSLVITLYCKRGRKKLLYIFKQPFMRPVQTTQEEDGCSCRFPEEEEGGCELRVKFSRSADAPAYQQGQNQLYNELNLGRREEYDVLDKRRGRDPEMGGKPRRKNPQEGLYNELQKDKMAEAYSEIGMKGERRRGKGHDGLYQGLSTATKDTYDALHMQALPPR chain 2: DIQMTQTTSSLSASLGDRVTISCRASQDISKYLNWYQQKPDGTVKLLIYHTSRLHSGVPSRFSGSGSGTDYSLTISNLEQEDIATYFCQQGNTLPYTFGGGTKLEITGGGGSGGGGSGGGGSEVKLQESGPGLVAPSQSLSVTCTVSGVSLPDYGVSWIRQPPRKGLEWLGVIWGSETTYYNSALKSRLTIIKDNSKSQVFLKMNSLQTDDTAIYYCAKHYYYGGSYAMDYWGQGTSVTVSSIEVMYPPPYLDNEKSNGTIIHVKGKHLCPSPLFPGPSKPFWVLVVVGGVLACYSLLVTVAFIIFWVRSKRSRLLHSDYMFMTPRRPGPTRKHYQPYAPPRDFAAYRSRVKFSRSADAPAYQQGQNQLYNELNLGRREEYDVLDKRRGRDPEMGGKPRRKNPQEGLYNELQKDKMAEAYSEIGMKGERRRGKGHDGLYQGLSTATKDTYDALHMQALPPR | 71.8% | 49%
B19-wildtype CAR (BCMA CAR and CD19-wildtype CAR expressed in parallel on T cells) (other) chain 1: DIVLTQSPPSLAMSLGKRATISCRASESVTILGSHLIHWYQQKPGQPPTLLIQLASNVQTGVPARFSGSGSRTDFTLTIDPVEEDDVAVYYCLQSRTIPRTFGGGTKLEIKGGGGSGGGGSGGGGSQIQLVQSGPELKKPGETVKISCKASGYTFTDYSINWVKRAPGKGLKWMGWINTETREPAYAYDFRGRFAFSLETSASTAYLQINNLKYEDTATYFCALDYSYAMDYWGQGTSVTVSSTTTPAPRPPTPAPTIASQPLSLRPEACRPAAGGAVHTRGLDFACDIYIWAPLAGTCGVLLLSLVITLYCKRGRKKLLYIFKQPFMRPVQTTQEEDGCSCRFPEEEEGGCELRVKFSRSADAPAYQQGQNQLYNELNLGRREEYDVLDKRRGRDPEMGGKPRRKNPQEGLYNELQKDKMAEAYSEIGMKGERRRGKGHDGLYQGLSTATKDTYDALHMQALPPR chain 2: DIQMTQTTSSLSASLGDRVTISCRASQDISKYLNWYQQKPDGTVKLLIYHTSRLHSGVPSRFSGSGSGTDYSLTISNLEQEDIATYFCQQGNTLPYTFGGGTKLEITGGGGSGGGGSGGGGSEVKLQESGPGLVAPSQSLSVTCTVSGVSLPDYGVSWIRQPPRKGLEWLGVIWGSETTYYNSALKSRLTIIKDNSKSQVFLKMNSLQTDDTAIYYCAKHYYYGGSYAMDYWGQGTSVTVSSIEVMYPPPYLDNEKSNGTIIHVKGKHLCPSPLFPGPSKPFWVLVVVGGVLACYSLLVTVAFIIFWVRSKRSRLLHSDYMNMTPRRPGPTRKHYQPYAPPRDFAAYRSRVKFSRSADAPAYQQGQNQLYNELNLGRREEYDVLDKRRGRDPEMGGKPRRKNPQEGLYNELQKDKMAEAYSEIGMKGERRRGKGHDGLYQGLSTATKDTYDALHMQALPPR | 55% | 30.6%

From patent US20260191957A1 (NOVATIM IMMUNE THERAPEUTICS ZHEJIANG, published 2026)
